Assay results: paper PMC12312269, “Directed evolution of α-ketoisovalerate decarboxylase for improved isobutanol and 3-methyl-1-butanol production in cyanobacteria” (Biotechnology for Biofuels and Bioproducts, 2025)

Molecular target: the molecule itself
Experiment: crystal structure; hanging-drop vapour diffusion, 16-17.8% PEG6000 or PEG3350, 0.1 M MES pH 6.0, 20 °C; space group C2, four molecules (two dimers) in the asymmetric unit

B1: α-ketoisovalerate decarboxylase Kivd^S286T (enzyme, Lactococcus lactis)
chain: MYTVGDYLLDRLHELGIEEIFGVPGDYNLQFLDQIISHKDMKWVGNANELNASYMADGYARTKKAAAFLTTFGVGELSAVNGLAGSYAENLPVVEIVGSPTSKVQNEGKFVHHTLADGDFKHFMKMHEPVTAARTLLTAENATVEIDRVLSALLKERKPVYINLPVDVAAAKAEKPSLPLKKENSTSNTSDQEILNKIQESLKNAKKPIVITGHEIISFGLEKTVTQFISKTKLPITTLNFGKSSVDEALPSFLGIYNGTLSEPNLKEFVESADFILMLGVKLTDTSTGAFTHHLNENKMISLNIDEGKIFNERIQNFDFESLISSLLDLSEIEYKGKYIDKKQEDFVPSNALLSQDRLWQAVENLTQSNETIVAEQGTSFFGASSIFLKSKSHFIGQPLWGSIGYTFPAALGSQIADKESRHLLFIGDGSLQLTVQELGLAIREKINPICFIINNDGYTVEREIHGPNQSYNDIPMWNYSKLPESFGATEDRVVSKIVRTENEFVSVMKEAQADPNRMYWIELILAKEGAPKVLKKMGKLFAEQNKS
notes: α-ketoisovalerate decarboxylase (Kivd) from Lactococcus lactis with the substitution S286T; the structure section names residues up to 548; Stored with 2.5 mM MgSO4 and 0.1 mM ThDP; also called ST; not shown: H6-Ub, N-terminal, cleaved
stoichiometry N: 4
